Data on four proteins can be found in ChEMBL document CHEMBL1145519, “Exploitation of structural and regulatory diversity in glutamate racemases” (Nature, 2007).

Where a chain is given by its changes, count along the chain named. Names and notes keep the numbering of the source.

Substrate in data set [1]: N[C@@H](CCC(=O)O)C(=O)O
The note with it: Helicobacter pylori.

Substrate in data set [2]: N[C@H](CCC(=O)O)C(=O)O
Conditions: Helicobacter pylori.

Substrate in data set [3]: N[C@@H](CCC(=O)O)C(=O)O
The note with it: Helicobacter pylori. The source holds these as a separate data set.

Substrate in data set [4]: N[C@H](CCC(=O)O)C(=O)O
The note with it: Helicobacter pylori. This is another data set of the same source.

Substrate in data set [5]: N[C@@H](CCC(=O)O)C(=O)O
The note with it: Helicobacter pylori. The source holds these as a separate data set.

Substrate in data set [6]: N[C@H](CCC(=O)O)C(=O)O
Conditions: Helicobacter pylori. The source holds these as a separate data set.

Substrate in data set [7]: N[C@@H](CCC(=O)O)C(=O)O
Kind of data set: (§1) Activity of Enterococcus faecalis MurI.

Substrate in data set [8]: N[C@H](CCC(=O)O)C(=O)O
The description is as §1.

B1: Glutamate racemase (Helicobacter pylori (strain ATCC 700392 / 26695) (Campylobacterpylori)), P56068 (protein)
chain: MKIGVFDSGVGGFSVLKSLLKAQLFDEIIYYGDSARVPYGTKDPTTIKQFGLEALDFFKPHQIKLLIVACNTASALALEEMQKHSKIPVVGVIEPSILAIKRQVKDKNAPILVLGTKATIQSNAYDNALKQQGYLNVSHLATSLFVPLIEESILEGELLETCMRYYFTPLEILPEVVILGCTHFPLIAQKIEGYFMEHFALSTPPLLIHSGDAIVEYLQQNYALKKNACAFPKVEFHASGDVVWLEKQAKEWLKL
For orientation: Km means the substrate concentration at which the rate is half of its maximum. Broadly, the kcat is the number of substrate molecules converted per active site and unit of time at saturation. For B1, the Km worked out at 740 µM in data set [1] and 63 µM in data set [2]. The catalytic constant (kcat) turned out to be 1.05 s⁻¹ in data set [1] and 0.2 s⁻¹ in data set [2].

B2: Glutamate racemase (Helicobacter pylori (strain ATCC 700392 / 26695) (Campylobacterpylori)), P56068 E151K (protein)
chain: B1 chain with E151K
As for B2, in data set [3], the Km came out at 7360 µM and the kcat turned out to be 2.27 s⁻¹. Further, in data set [4], the Michaelis constant (Km) was determined as 282 µM and the kcat came out at 0.0833 s⁻¹.

B3: Glutamate racemase (Helicobacter pylori (strain ATCC 700392 / 26695) (Campylobacterpylori)), P56068 A75T (protein)
chain: B1 chain with A75T
On to B3, for which, in data set [5], the Km amounted to 7430 µM and the kcat came to 1.78 s⁻¹. For the same protein, in data set [6], the Km was determined as 275 µM and the kcat was found to be 0.065 s⁻¹.

B4: Glutamate racemase (Enterococcus faecalis (strain ATCC 700802 / V583)), Q836J0 (protein)
chain: MSNQEAIGLIDSGVGGLTVLKEALKQLPNERLIYLGDTARCPYGPRPAEQVVQFTWEMADFLLKKRIKMLVIACNTATAVALEEIKAALPIPVVGVILPGARAAVKVTKNNKIGVIGTLGTIKSASYEIAIKSKAPTIEVTSLDCPKFVPIVESNQYRSSVAKKIVAETLQALQLKGLDTLILGCTHYPLLRPVIQNVMGSHVTLIDSGAETVGEVSMLLDYFDIAHTPEAPTQPHEFYTTGSAKMFEEIASSWLGIENLKAQQIHLGGNEND
For B4, in data set [7], the Km was determined as 1200 µM and the kcat stood at 25 s⁻¹. In data set [8], the Km is 250 µM and the kcat amounted to 11.7 s⁻¹.
